Reference: article PMC13602928

Columns and labels:
[1] = molecular target: stripped Anabaena flos-aquae (Ana) gas vesicles (GV shell, native GvpC removed) (Anabaena flos-aquae) (UniProt P10397)
[2] = molecular target: stripped Anabaena flos-aquae (Ana) gas vesicles (GV shell, native GvpC removed) (Anabaena flos-aquae) (UniProt P10397); remark: listed apart in the source

Sequence of UniProt P10397 (P10397 whole entry): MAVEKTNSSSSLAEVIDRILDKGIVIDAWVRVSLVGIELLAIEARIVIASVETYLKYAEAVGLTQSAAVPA

| midpoint collapse pressure of UReKA1 GVs (pressurized absorbance spectroscopy), after PKA phosphorylation [1] [kPa] | nonlinear (xAM) ultrasound signal of purified UReKA1 GVs at 350 kPa, with PKA against without PKA [1] [fold] | time course of the nonlinear ultrasound signal of UReKA1 GVs after PKA addition; time to maximal contrast (signal first detectable after 2-3 h) [2] [h] | midpoint collapse pressure of UReKA2 GVs (pressurized absorbance spectroscopy), after PKA phosphorylation [1] [kPa] | nonlinear (xAM) ultrasound signal of purified UReKA2 GVs at 489 kPa, with PKA against without PKA [1] [fold] | time course of the nonlinear ultrasound signal of UReKA2 GVs after PKA addition; time to maximal contrast (signal first detectable after 2-3 h) [2] [h] | Substance |
| --- | --- | --- | --- | --- | --- | --- |
| 227 | 4.5 | 8 | – | – | – | phosphorylated UReKA1 GvpC (pThr60) |
| – | – | – | 283 | 12.9 | 12 | phosphorylated UReKA2 GvpC (pThr81) |
